For test [1], the target named is T1, human cholecystokinin-2 receptor (human, UniProt P32239 1-447).
T1 sequence (looked up): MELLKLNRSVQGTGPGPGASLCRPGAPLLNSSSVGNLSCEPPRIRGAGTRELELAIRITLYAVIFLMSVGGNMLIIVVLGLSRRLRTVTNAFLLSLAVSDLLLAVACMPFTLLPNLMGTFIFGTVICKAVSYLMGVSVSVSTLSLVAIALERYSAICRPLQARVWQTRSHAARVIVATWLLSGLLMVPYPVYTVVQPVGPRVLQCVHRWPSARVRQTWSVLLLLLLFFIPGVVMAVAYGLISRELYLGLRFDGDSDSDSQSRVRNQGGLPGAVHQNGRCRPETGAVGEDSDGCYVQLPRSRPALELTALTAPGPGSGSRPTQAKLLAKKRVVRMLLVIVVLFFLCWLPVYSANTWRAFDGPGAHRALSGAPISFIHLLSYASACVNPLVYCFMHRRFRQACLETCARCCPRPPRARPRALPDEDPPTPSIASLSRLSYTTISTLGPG
The experiment in a line: cell-based or functional assay.

In test [2] the target is T2, human cholecystokinin-2 receptor (CCK-2R) (Homo sapiens, UniProt P32239).
T2 construct: host or cells: 1321-N1 cells (plasma membranes prepared by Evotec AG Hamburg)
T2 sequence (P32239 1-447): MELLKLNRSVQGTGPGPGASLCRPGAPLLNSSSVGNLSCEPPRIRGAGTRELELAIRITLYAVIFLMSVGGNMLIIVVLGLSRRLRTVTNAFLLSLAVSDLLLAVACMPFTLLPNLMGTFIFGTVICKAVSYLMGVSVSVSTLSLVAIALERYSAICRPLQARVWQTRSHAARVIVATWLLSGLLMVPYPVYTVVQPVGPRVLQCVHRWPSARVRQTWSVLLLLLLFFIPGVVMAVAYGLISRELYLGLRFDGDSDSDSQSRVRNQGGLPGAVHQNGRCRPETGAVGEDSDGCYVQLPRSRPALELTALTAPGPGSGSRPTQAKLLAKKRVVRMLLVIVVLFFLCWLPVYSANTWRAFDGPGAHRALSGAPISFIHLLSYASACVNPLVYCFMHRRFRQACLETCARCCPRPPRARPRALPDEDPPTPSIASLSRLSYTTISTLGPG
Nature of the test: In vitro potency on CCK-2R, whole cell functional assay (IP1 accumulation, IP-One HTRF). The test is classed as cell-based.

The mark [3] stands for this setting: 1321-N1 cells stably expressing CCK-2R, IP1 accumulation, highest dose tested 1×10^6 pM, read-out: EC50 (CCK-2R).

Where two headings read alike, the source gives them in different places. Starred links: 1 amine or outer side, 2 acyl side, 3 side chain; linkers in the order of their positions; H or OH if unused. Non-standard residues stand in square brackets, D forms with d. Residues, ends and D or L forms follow the SMILES beside them. No end group written: not given here. *: point of attachment. sY = N[C@@H](Cc1ccc(OS(=O)(=O)O)cc1)C(=O)O; C18 diacid = O=C(O)CCCCCCCCCCCCCCCCC(=O)*; C16 diacid = O=C(O)CCCCCCCCCCCCCCC(=O)*; γGlu = O=C(O)[C@H](CCC(=O)[*:2])N[*:1]; C14 diacid = O=C(O)CCCCCCCCCCCCC(=O)*; NMeF = CN[C@@H](Cc1ccccc1)C(=O)O; dNMeD = CN[C@H](CC(=O)O)C(=O)O; Nle = CCCC[C@H](N)C(=O)O; AEEA = NCCOCCOCC(=O)O

Take “2-[2-[2-[[2-[2-[2-[[(4S)-4-Carboxy-4-(13-carboxytridecanoylamino)butanoyl]amino]ethoxy]ethoxy]acetyl]amino]ethoxy]ethoxy]acetyl-Asp-Phe(4-sulfomethyl)-Leu-Gly-Trp-Nle-DMeAsp-MePhe-amide (peptide)”: the EC50 (CCK-2R) in test [1] was > 1000 nM. Same read-out and setting: next, “2-[2-[2-[[2-[2-[2-[[(4S)-4-Carboxy-4-(15-carboxypentadecanoylamino)butanoyl]amino]ethoxy]ethoxy]acetyl]amino]ethoxy]ethoxy]acetyl-Asp-Phe(4-sulfomethyl)-Leu-Gly-Trp-Nle-DMeAsp-MePhe-amide (peptide)”: > 1000 nM. On to “2-[2-[2-[[2-[2-[2-[[(4S)-4-Carboxy-4-(17-carboxyheptadecanoylamino)butanoyl]amino]ethoxy]ethoxy]acetyl]amino]ethoxy]ethoxy]acetyl-Asp-Phe(4-sulfomethyl)-Nle-Gly-Trp-Nle-DMeAsp-MePhe-amide (peptide)”, for which, in test [1], the EC50 (CCK-2R) is > 1000 nM. Still for that read-out and setting: next, “2-[2-[2-[[2-[2-[2-[[(4S)-4-Carboxy-4-(17-carboxyheptadecanoylamino)butanoyl]amino]ethoxy]ethoxy]acetyl]amino]ethoxy]ethoxy]acetyl-DAsp-Phe(4-sulfomethyl)-Nle-Gly-Trp-Nle-DMeAsp-MePhe-amide (peptide)”: > 1000 nM. On to “2-[2-[2-[[2-[2-[2-[[(4S)-4-Carboxy-4-(17-carboxyheptadecanoylamino)butanoyl]amino]ethoxy]ethoxy]acetyl]amino]ethoxy]ethoxy]acetyl-DbAsp-Phe(4-sulfomethyl)-Nle-Gly-Trp-Nle-DMeAsp-MePhe-amide (peptide)”, for which the EC50 (CCK-2R) in test [1] is > 1000 nM.

On to “2-[2-[2-[[2-[2-[2-[[(4S)-4-Carboxy-4-(17-carboxyheptadecanoylamino)butanoyl]amino]ethoxy]ethoxy]acetyl]amino]ethoxy]ethoxy]acetyl-bAsp-Phe(4-sulfomethyl)-Nle-Gly-Trp-Nle-DMeAsp-MePhe-amide (peptide)”, for which, in test [1], the EC50 (CCK-2R) is > 1000 nM. As for “2-[2-[2-[[2-[2-[2-[[(4S)-4-Carboxy-4-(19-carboxynonadecanoylamino)butanoyl]amino]ethoxy]ethoxy]acetyl]amino]ethoxy]ethoxy]acetyl-Asp-Phe(4-sulfomethyl)-Leu-Gly-Trp-Nle-DMeAsp-MePhe-amide (peptide)”, the EC50 (CCK-2R) in test [1] was > 1000 nM. `CCCC[C@H](NC(=O)[C@H](Cc1ccc(OS(=O)(=O)O)cc1)NC(=O)[C@H](CC(=O)O)NC(=O)COCCOCCNC(=O)COCCOCCNC(=O)CC[C@H](NC(=O)CCCCCCCCCCCCCCCCC(=O)O)C(=O)O)C(=O)NCC(=O)N[C@@H](Cc1c[nH]c2ccccc12)C(=O)N[C@@H](CCCC)C(=O)N(C)[C@H](CC(=O)O)C(=O)N[C@@H](Cc1c[nH]c2ccccc12)C(N)=O` [Example 1, 2-[2-[2-[[2-[2-[2-[[(4S)-4-Carboxy-4-(17-carboxyheptadecanoylamino)butanoyl]amino]ethoxy]ethoxy]acetyl]amino]ethoxy]ethoxy]acetyl-Asp-sTyr-Nle-Gly-Trp-Nle-DMeAsp-Trp-amide] ({C18 diacid-γGlu-AEEA-AEEA}-D[sY][Nle]GW[Nle][dNMeD]W-NH2): in test [2] (setting [3]), the EC50 is > 1000 nM.

With `CCCC[C@H](NC(=O)[C@H](Cc1c[nH]c2ccccc12)NC(=O)CNC(=O)[C@H](CC(C)C)NC(=O)[C@H](Cc1ccc(OS(=O)(=O)O)cc1)NC(=O)[C@H](CC(=O)O)NC(=O)COCCOCCNC(=O)COCCOCCNC(=O)CC[C@H](NC(=O)CCCCCCCCCCCCCCCCC(=O)O)C(=O)O)C(=O)N(C)[C@H](CC(=O)O)C(=O)N(C)[C@@H](Cc1ccccc1)C(N)=O` [Example 9, 2-[2-[2-[[2-[2-[2-[[(4S)-4-Carboxy-4-(17-carboxyheptadecanoylamino)butanoyl]amino]ethoxy]ethoxy]acetyl]amino]ethoxy]ethoxy]acetyl-Asp-sTyr-Leu-Gly-Trp-Nle-DMeAsp-MePhe-amide], the midpoint of the response in test [2], the EC50, lay at 170 nM. For `CCCC[C@H](NC(=O)[C@H](Cc1c[nH]c2ccccc12)NC(=O)CNC(=O)[C@H](CC(C)C)NC(=O)[C@H](Cc1ccc(OS(=O)(=O)O)cc1)NC(=O)[C@H](CCC(=O)O)NC(=O)COCCOCCNC(=O)COCCOCCNC(=O)CC[C@H](NC(=O)CCCCCCCCCCCCC(=O)O)C(=O)O)C(=O)N(C)[C@H](CC(=O)O)C(=O)N(C)[C@@H](Cc1ccccc1)C(N)=O` [Example 36, 2-[2-[2-[[2-[2-[2-[[(4S)-4-Carboxy-4-(13-carboxytridecanoylamino)butanoyl]amino]ethoxy]ethoxy]acetyl]amino]ethoxy]ethoxy]acetyl-Glu-sTyr-Leu-Gly-Trp-Nle-DMeAsp-MePhe-amide] ({C14 diacid-γGlu-AEEA-AEEA}-E[sY]LGW[Nle][dNMeD][NMeF]-NH2), in test [2] (setting [3]), the EC50 was found to be 150 nM. The same measure, in the same setting: in the case of `CCCC[C@H](NC(=O)[C@H](Cc1c[nH]c2ccccc12)NC(=O)CNC(=O)[C@H](CC(C)C)NC(=O)[C@H](Cc1ccc(OS(=O)(=O)O)cc1)NC(=O)[C@H](CCC(=O)O)NC(=O)COCCOCCNC(=O)COCCOCCNC(=O)CC[C@H](NC(=O)CCCCCCCCCCCCCCC(=O)O)C(=O)O)C(=O)N(C)[C@H](CC(=O)O)C(=O)N(C)[C@@H](Cc1ccccc1)C(N)=O` [Example 39, 2-[2-[2-[[2-[2-[2-[[(4S)-4-Carboxy-4-(15-carboxypentadecanoylamino)butanoyl]amino]ethoxy]ethoxy]acetyl]amino]ethoxy]ethoxy]acetyl-Glu-sTyr-Leu-Gly-Trp-Nle-DMeAsp-MePhe-amide] ({C16 diacid-γGlu-AEEA-AEEA}-E[sY]LGW[Nle][dNMeD][NMeF]-NH2) it was 110 nM. With `CCCC[C@H](NC(=O)[C@H](Cc1c[nH]c2ccccc12)NC(=O)CNC(=O)[C@H](Cc1c[nH]cn1)NC(=O)[C@H](Cc1ccc(OS(=O)(=O)O)cc1)NC(=O)[C@H](CC(=O)O)NC(=O)COCCOCCNC(=O)COCCOCCNC(=O)CC[C@H](NC(=O)CCCCCCCCCCCCCCCCC(=O)O)C(=O)O)C(=O)N(C)[C@H](CC(=O)O)C(=O)N(C)[C@@H](Cc1ccccc1)C(N)=O` [Example 48, 2-[2-[2-[[2-[2-[2-[[(4S)-4-Carboxy-4-(17-carboxyheptadecanoylamino)butanoyl]amino]ethoxy]ethoxy]acetyl]amino]ethoxy]ethoxy]acetyl-Asp-sTyr-His-Gly-Trp-Nle-DMeAsp-MePhe-amide] ({C18 diacid-γGlu-AEEA-AEEA}-D[sY]HGW[Nle][dNMeD][NMeF]-NH2), the EC50 in test [2] (setting [3]) is > 1000 nM. Still for that read-out and setting: next, `CCCC[C@H](NC(=O)[C@H](Cc1c[nH]c2ccccc12)NC(=O)CNC(=O)[C@H](CC(C)C)NC(=O)[C@H](Cc1ccc(OS(=O)(=O)O)cc1)NC(=O)[C@@H](CCC(=O)O)NC(=O)COCCOCCNC(=O)COCCOCCNC(=O)CC[C@H](NC(=O)CCCCCCCCCCCCCCCCC(=O)O)C(=O)O)C(=O)N(C)[C@H](CC(=O)O)C(=O)N(C)[C@@H](Cc1ccccc1)C(N)=O` [Example 49, 2-[2-[2-[[2-[2-[2-[[(4S)-4-Carboxy-4-(17-carboxyheptadecanoylamino)butanoyl]amino]ethoxy]ethoxy]acetyl]amino]ethoxy]ethoxy]acetyl-DGlu-sTyr-Leu-Gly-Trp-Nle-DMeAsp-MePhe-amide] ({C18 diacid-γGlu-AEEA-AEEA}-[dE][sY]LGW[Nle][dNMeD][NMeF]-NH2): 46 nM. The same measure, in the same setting: in the case of `CCCC[C@H](NC(=O)[C@H](Cc1c[nH]c2ccccc12)NC(=O)CNC(=O)[C@H](CC(C)C)NC(=O)[C@H](Cc1ccc(OS(=O)(=O)O)cc1)NC(=O)[C@@H](N)CC(=O)O)C(=O)N(C)[C@H](CC(=O)O)C(=O)N(C)[C@@H](Cc1ccccc1)C(N)=O` [Example 60, Asp-sTyr-Leu-Gly-Trp-Nle-DMeAsp-MePhe-amide] it was 380 nM. Consider “Asp-Phe(4-sulfomethyl)-Leu-Gly-Trp-Nle-DMeAsp-MePhe-amide (peptide)”, for which the EC50 (CCK-2R) in test [1] was > 1000 nM.

“Asp-sTyr-His-Gly-Trp-Nle-DMeAsp-MePhe-amide (peptide)”: the EC50 (CCK-2R) in test [1] was > 1000 nM. On the same count and under the same terms, in the case of “Asp-sTyr-Ile-Gly-Trp-Nle-DMeAsp-MePhe-amide (peptide)” it was > 1000 nM; in that of “Asp-sTyr-Leu-Gly-Trp-Nle-DMeAsp-Phe-amide (peptide)”, > 1000 nM; in that of “Asp-sTyr-Nle-Gly-Trp-Nle-DMeAsp-MePhe-amide (peptide)”, > 1000 nM. Turning to “Asp-sTyr-Pro-Gly-Trp-Nle-DMeAsp-MePhe-amide (peptide)”, in test [1], the EC50 (CCK-2R) was > 1000 nM. On the same count and under the same terms, in the case of “DGlu-sTyr-Leu-Gly-Trp-Nle-DMeAsp-MePhe-amide (peptide)” it was > 1000 nM; in that of “Glu-sTyr-Leu-Gly-Trp-Nle-DMeAsp-MePhe-amide (peptide)”, 920 nM.

B1: Glu-sTyr-Leu-Gly-Trp-Nle-DMeAsp-Phe-amide (peptide)
peptide: E[sY]LGW[Nle][dNMeD]F-NH2
modifications: N-terminus assumed
SMILES: CCCC[C@H](NC(=O)[C@H](Cc1c[nH]c2ccccc12)NC(=O)CNC(=O)[C@H](CC(C)C)NC(=O)[C@H](Cc1ccc(OS(=O)(=O)O)cc1)NC(=O)[C@@H](N)CCC(=O)O)C(=O)N(C)[C@H](CC(=O)O)C(=O)N[C@@H](Cc1ccccc1)C(N)=O
notes: X = Nle or Nal
As to B1, in test [1], the EC50 (CCK-2R) is > 1000 nM.

B2: 2-[2-[2-[[2-[2-[2-[[(4S)-4-Carboxy-4-(17-carboxyheptadecanoylamino)butanoyl]amino]ethoxy]ethoxy]acetyl]amino]ethoxy]ethoxy]acetyl-Glu-sTyr-Leu-Gly-Trp-Gln-DMeAs … (peptide)
peptide: {C18 diacid-γGlu-AEEA-AEEA}-E[sY]LGWQ[dNMeD]F-NH2
On to B2, for which, in test [1], the “EC50 (CCK-2R)” value was > 1000 nM.

B3: Glu-sTyr-Leu-Gly-Trp-Gln-DMeAsp-Phe-amide (peptide)
peptide: E[sY]LGWQ[dNMeD]F-NH2
Regarding B3, the “EC50 (CCK-2R)” value in test [1] is > 1000 nM.

The EC50 is the concentration that produces a half-maximal response.

The values are drawn from patent US20170008928A1, “NOVEL PEPTIDES AND PEPTIDE DERIVATIVES AND USES THEREOF” (Novo Nordisk A/S, priority 2015, published 2017).
